For one molecule, Kd results are on record in patent US20200299408A1 (Genentech, published 2020).

The assay has as its target T1, murine CD3 (mouse, UniProt P22646 22-189).
T1 construct: also called mouse CD3
Briefly: Biacore, monovalent KD of the CD3 arm; CD3 antigen not named on the sheet (reactivity mouse). (In SPR one partner is held on a chip, and binding of the other changes the refractive index at the surface.)

T1 sequence (P22646 22-189): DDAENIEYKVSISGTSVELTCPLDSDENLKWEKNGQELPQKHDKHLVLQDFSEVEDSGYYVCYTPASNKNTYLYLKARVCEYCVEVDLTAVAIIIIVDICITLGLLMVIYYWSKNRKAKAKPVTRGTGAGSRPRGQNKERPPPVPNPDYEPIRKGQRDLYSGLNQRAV

B1: 2C11 (antibody, V domains shown)
VH: EVQLVESGGGLVQPGKSLKLSCEASGFTFSGYGMHWVRQAPGRGLESVAYITSSSINIKYADAVKGRFTVSRDNAKNLLFLQMNILKSEDTAMYYCARFDWDKNYWGQGTMVTVSS
VL: DIQMTQSPSSLPASLGDRVTINCQASQDISNYLNWYQQKPGKAPKLLIYYTNKLADGVPSRFSGSGSGRDSSFTISSLESEDIGSYYCQQYYNYPWTFGPGTKLEIK
Broadly, the Kd is a measure of binding affinity in units of concentration. A higher Kd goes with lower affinity. Regarding B1, the Kd was found to be 22 nM. This lies in the double-digit nanomolar range.
